± gives the standard error. For some assays here: This sample holds only a part of the variants without activity.
B1: glmS ribozyme (parent)
chain: AUAAAAGCGCCAGAACUACAGAAAUGUAGUUGACGAGGAGGAGGUUUAUCGAAUUUUCGGCGGAUGCCUCCAAA

Legend:
Settings in all cases: with glucosamine-6-phosphate
[1] = variants of: B1; test: kcat; higher = faster cleavage; RNA array
Summary of the method: (§1)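 Tiles of sequenced MiSeq chips were imaged over ~14 h at 37 °C. On them, barcoded ribozyme variants had been transcribed in situ by E. coli RNA polymerase and were tracked via a hybridised Cy3 probe while glucosamine-6-phosphate (40 μM to 10 mM) in HEPES/KCl/Mg(OAc)2 buffer flowed in. Per-tile medians, normalised to baseline and to non-cleaving reference variants, were fit to one- or two-exponential decays for kobs, and weighted Michaelis–Menten fits gave kcat and KM.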

[2] = variants of: B1; test: KM; higher = weaker cofactor use; RNA array
Summary of the method: as §1

[3] = variants of: B1; test: self-cleavage kobs at 2500 uM GlcN6P; higher = faster cleavage; RNA array
Summary of the method: as §1

[4] = variants of: B1; test: self-cleavage kobs at 10000 uM GlcN6P; higher = faster cleavage; RNA array
Summary of the method: as §1

[5] = variants of: B1; test: self-cleavage kobs at 40 uM GlcN6P; higher = faster cleavage; RNA array
Summary of the method: as §1

[6] = variants of: B1; test: self-cleavage kobs at 160 uM GlcN6P; higher = faster cleavage; RNA array
Summary of the method: as §1

[7] = variants of: B1; test: self-cleavage kobs at 640 uM GlcN6P; higher = faster cleavage; RNA array
Summary of the method: as §1

Variant	kcat [1] [s⁻¹]	KM [2] [µM]	self-cleavage kobs at 2500 uM GlcN6P [3] [s⁻¹]	self-cleavage kobs at 10000 uM GlcN6P [4] [s⁻¹]	self-cleavage kobs at 40 uM GlcN6P [5] [s⁻¹]	self-cleavage kobs at 160 uM GlcN6P [6] [s⁻¹]	self-cleavage kobs at 640 uM GlcN6P [7] [s⁻¹]
U47G C50U	3.97e-05 ± 1.6e-06	433 ± 100	3.64e-05 ± 1.5e-05	3.69e-05 ± 1.2e-05			
U46A U55A	0.00375 ± 0.001	2140 ± 820	0.00221 ± 0.00094	0.00298 ± 0.00056	5.91e-05 ± 1.3e-05	0.00063 ± 0.00021	0.00107 ± 0.00026
A48G G59A	5.08e-05 ± 1.8e-05		6.29e-05 ± 1.8e-05				
U45A U65G	0.00585 ± 0.001	4290 ± 1100	0.00235 ± 0.00063	0.00411 ± 0.00045	5.91e-05 ± 7.9e-06		0.000543 ± 0.00016
A48U U57G	< 1e-05			< 1e-05	< 1e-05	< 1e-05	
A48G G63A	< 1e-05				< 1e-05	< 1e-05	
A48U U55G	0.000482 ± 2.4e-05	3300 ± 360	0.000226 ± 5.6e-05	0.000359 ± 4.8e-05			7.42e-05 ± 2.3e-05
A48U U55C	0.000437 ± 6.5e-05	2190 ± 650	0.000214 ± 3.6e-05	0.000378 ± 6.8e-05			0.000116 ± 2.5e-05
A48G C67A	7.17e-05 ± 2.1e-06			3.47e-05 ± 1.2e-05		< 1e-05	
U47G A48C	0.000154 ± 1.4e-05	2250 ± 640	9.31e-05 ± 3e-05	0.000124 ± 1.9e-05	< 1e-05		
U45C C70U	0.0085 ± 0.0033	4580 ± 2200	0.00283 ± 0.00041	0.00646 ± 0.00093	0.000103 ± 1.3e-05	0.000303 ± 4.5e-05	0.000855 ± 0.00011
A48U U54G C70U	0.000549 ± 9.5e-05	1760 ± 550	0.000369 ± 9.6e-05	0.000445 ± 0.00012			0.000139 ± 2.9e-05
U45G U56G	0.00528 ± 0.00075	2490 ± 520	0.0033 ± 0.00052	0.00403 ± 0.00047	8.78e-05 ± 1.3e-05	0.000245 ± 6.5e-05	0.0011 ± 0.00017
U45A U69A	0.000153 ± 3.8e-05		0.000129 ± 3.7e-05	0.000167 ± 2.1e-05	5.69e-05 ± 1.3e-05		9.56e-05 ± 2.4e-05
U46A G66A	0.000792 ± 5.9e-05	2830 ± 440	0.000321 ± 8.6e-05	0.00063 ± 7.9e-05			0.000156 ± 3.3e-05
A48U C71U	0.000562 ± 8.4e-05	1890 ± 590	0.000338 ± 5.6e-05	0.000461 ± 5.6e-05			0.000153 ± 2.3e-05
U45G C67A	0.00845 ± 0.0014	2670 ± 590	0.00369 ± 0.001	0.00674 ± 0.0011	0.000114 ± 1.8e-05	0.000663 ± 0.00016	0.00177 ± 0.00033
U46C U54G	0.00333 ± 0.00031	1370 ± 200	0.00284 ± 0.00085	0.00287 ± 0.0004	9.45e-05 ± 1.5e-05		0.000997 ± 0.00031
U47G U65C	0.000283 ± 6.3e-05		0.000316 ± 6.8e-05	0.000232 ± 3.5e-05			7.88e-05 ± 2.3e-05
U45C U56G	0.00225 ± 0.00059	4840 ± 1800	0.000677 ± 0.00011	0.00156 ± 0.00019		5.85e-05 ± 1.2e-05	0.000335 ± 4.1e-05
U46A C70U	0.004 ± 0.0017		0.00206 ± 0.00026	0.00626 ± 0.00087	0.000188 ± 3.1e-05	0.000346 ± 5.5e-05	0.00135 ± 0.00019
U45G A53U	0.00477 ± 0.00059	2170 ± 340	0.00274 ± 0.001	0.004 ± 0.0007	9.6e-05 ± 1.4e-05	0.000306 ± 5.6e-05	0.000953 ± 0.00022
U46G U47A	0.0123 ± 0.0053		0.00836 ± 0.0038	0.0106 ± 0.0026		0.00128 ± 0.00029	0.00231 ± 0.00046
U45A U47A	0.0227 ± 0.0082		0.0263 ± 0.0064		0.00126 ± 0.0002	0.00413 ± 0.001	0.00902 ± 0.0014
U47G G51C U57C C68U	1.54e-05 ± 3.7e-06				< 1e-05		
A48G C68A	1.35e-05 ± 5e-06				< 1e-05		
A48G U57C	1.23e-05 ± 2.5e-06						
U45G C58G	6.11e-05 ± 9.3e-06	4730 ± 1900		4.17e-05 ± 1.1e-05			
U45G U55A	0.00686 ± 0.00089	1800 ± 330	0.00385 ± 0.00058	0.00606 ± 0.0012	0.000186 ± 4e-05	0.000513 ± 7.7e-05	0.00187 ± 0.00028
U45G A64G	0.00935 ± 0.0026	2790 ± 990	0.00451 ± 0.00092	0.00759 ± 0.002	0.000169 ± 2.8e-05	0.000411 ± 0.00011	0.00161 ± 0.0003

From the supplement of paper PMC7125110
